This data set concerns the molecule itself. Briefly: SDS-PAGE.

B1: full-length Lsr2 from Mycobacterium tuberculosis (natural protein)
chain: not shown
notes: Lsr2 (Rv3597c) of Mycobacterium tuberculosis H37Rv, full length; also called Rv3597c
Turning to B1, the binding result is given as “binds”.

(Values after article PMC3374832, “The Structure of the Oligomerization Domain of Lsr2 from Mycobacterium tuberculosis Reveals a Mechanism for Chromosome Organization and Protection” (PLoS ONE, 2012).)
